Laboratory results as given in patent US20240425885.

Assays:
Test in all cases: cleavage_in_vitro
[1] = tested on: T1, OMNI-98 (metagenomic, unknown); conditions: TXTL; PAM NNAAATNN
T1 sequence: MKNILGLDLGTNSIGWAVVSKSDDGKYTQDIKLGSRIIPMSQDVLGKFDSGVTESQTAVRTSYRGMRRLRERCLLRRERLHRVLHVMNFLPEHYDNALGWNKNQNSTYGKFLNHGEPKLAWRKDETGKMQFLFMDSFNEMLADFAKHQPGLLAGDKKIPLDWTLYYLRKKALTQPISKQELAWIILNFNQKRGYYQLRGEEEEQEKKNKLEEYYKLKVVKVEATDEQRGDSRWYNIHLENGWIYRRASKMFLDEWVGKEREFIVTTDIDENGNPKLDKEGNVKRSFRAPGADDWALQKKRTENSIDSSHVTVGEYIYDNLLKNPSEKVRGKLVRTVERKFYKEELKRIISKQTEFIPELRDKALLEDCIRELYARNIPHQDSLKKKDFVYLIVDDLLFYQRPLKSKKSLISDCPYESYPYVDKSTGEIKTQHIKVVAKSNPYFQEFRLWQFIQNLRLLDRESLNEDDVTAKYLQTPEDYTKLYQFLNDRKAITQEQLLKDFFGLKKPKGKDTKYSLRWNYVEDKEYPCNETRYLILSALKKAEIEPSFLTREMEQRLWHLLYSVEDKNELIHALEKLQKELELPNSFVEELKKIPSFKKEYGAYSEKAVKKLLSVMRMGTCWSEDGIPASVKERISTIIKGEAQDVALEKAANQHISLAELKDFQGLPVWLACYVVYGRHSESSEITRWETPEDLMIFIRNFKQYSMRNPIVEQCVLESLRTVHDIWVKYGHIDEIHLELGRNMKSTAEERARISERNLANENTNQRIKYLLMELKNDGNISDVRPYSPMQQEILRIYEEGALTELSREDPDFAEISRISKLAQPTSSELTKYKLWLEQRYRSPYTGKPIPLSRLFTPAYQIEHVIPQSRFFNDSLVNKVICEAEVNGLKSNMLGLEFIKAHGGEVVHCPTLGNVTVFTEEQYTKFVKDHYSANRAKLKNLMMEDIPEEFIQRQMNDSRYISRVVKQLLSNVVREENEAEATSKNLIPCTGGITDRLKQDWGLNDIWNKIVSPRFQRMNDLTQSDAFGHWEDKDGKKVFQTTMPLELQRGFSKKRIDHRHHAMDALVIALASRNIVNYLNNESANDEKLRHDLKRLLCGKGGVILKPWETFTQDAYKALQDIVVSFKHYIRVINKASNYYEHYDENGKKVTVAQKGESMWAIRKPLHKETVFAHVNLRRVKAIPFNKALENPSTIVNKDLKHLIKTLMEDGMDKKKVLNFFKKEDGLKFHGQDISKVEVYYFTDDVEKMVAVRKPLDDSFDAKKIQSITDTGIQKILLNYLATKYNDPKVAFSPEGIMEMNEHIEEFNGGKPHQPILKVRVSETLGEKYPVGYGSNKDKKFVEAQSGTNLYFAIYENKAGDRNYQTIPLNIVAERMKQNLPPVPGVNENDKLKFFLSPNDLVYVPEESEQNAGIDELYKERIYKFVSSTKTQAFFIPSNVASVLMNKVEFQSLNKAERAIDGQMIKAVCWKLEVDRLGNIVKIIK

[2] = tested on: T2, OMNI-99 (metagenomic, unknown); conditions: TXTL; PAM NAGACNNN
T2 sequence: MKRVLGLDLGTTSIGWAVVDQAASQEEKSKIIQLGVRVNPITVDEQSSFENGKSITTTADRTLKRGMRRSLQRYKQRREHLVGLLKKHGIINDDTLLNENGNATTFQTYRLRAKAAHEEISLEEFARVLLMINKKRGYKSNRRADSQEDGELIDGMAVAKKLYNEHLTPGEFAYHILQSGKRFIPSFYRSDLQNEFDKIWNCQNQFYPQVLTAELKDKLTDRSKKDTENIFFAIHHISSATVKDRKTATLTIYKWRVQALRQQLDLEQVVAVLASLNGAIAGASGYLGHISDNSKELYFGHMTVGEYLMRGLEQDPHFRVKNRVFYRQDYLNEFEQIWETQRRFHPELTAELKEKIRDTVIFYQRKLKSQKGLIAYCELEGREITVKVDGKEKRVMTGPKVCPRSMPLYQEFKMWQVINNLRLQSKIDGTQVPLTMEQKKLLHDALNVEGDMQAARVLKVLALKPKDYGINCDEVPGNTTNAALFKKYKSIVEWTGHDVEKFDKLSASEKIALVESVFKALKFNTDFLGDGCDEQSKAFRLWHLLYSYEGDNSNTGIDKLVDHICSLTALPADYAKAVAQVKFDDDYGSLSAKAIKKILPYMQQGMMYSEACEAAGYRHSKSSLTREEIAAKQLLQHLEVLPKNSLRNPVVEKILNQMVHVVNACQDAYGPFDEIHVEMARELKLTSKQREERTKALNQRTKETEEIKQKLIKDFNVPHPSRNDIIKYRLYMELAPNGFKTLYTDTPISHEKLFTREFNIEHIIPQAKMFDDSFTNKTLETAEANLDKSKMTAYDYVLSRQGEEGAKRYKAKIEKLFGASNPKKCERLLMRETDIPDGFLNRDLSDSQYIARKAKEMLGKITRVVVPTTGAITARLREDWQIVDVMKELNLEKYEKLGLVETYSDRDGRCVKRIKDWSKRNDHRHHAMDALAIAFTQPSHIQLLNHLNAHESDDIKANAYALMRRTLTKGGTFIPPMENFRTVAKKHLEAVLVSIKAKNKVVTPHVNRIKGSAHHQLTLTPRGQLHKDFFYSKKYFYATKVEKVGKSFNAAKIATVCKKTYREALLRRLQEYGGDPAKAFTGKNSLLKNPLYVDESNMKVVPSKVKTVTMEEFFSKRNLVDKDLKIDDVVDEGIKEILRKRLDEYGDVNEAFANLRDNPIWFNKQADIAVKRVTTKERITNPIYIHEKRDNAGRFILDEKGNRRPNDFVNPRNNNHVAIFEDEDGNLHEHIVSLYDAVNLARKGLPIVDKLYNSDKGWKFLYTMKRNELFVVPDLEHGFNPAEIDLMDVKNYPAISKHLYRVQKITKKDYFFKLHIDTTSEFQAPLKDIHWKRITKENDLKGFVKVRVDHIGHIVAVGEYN

[3] = tested on: T3, OMNI-106 (metagenomic, unknown); conditions: TXTL; PAM NRKAACNN
T3 sequence: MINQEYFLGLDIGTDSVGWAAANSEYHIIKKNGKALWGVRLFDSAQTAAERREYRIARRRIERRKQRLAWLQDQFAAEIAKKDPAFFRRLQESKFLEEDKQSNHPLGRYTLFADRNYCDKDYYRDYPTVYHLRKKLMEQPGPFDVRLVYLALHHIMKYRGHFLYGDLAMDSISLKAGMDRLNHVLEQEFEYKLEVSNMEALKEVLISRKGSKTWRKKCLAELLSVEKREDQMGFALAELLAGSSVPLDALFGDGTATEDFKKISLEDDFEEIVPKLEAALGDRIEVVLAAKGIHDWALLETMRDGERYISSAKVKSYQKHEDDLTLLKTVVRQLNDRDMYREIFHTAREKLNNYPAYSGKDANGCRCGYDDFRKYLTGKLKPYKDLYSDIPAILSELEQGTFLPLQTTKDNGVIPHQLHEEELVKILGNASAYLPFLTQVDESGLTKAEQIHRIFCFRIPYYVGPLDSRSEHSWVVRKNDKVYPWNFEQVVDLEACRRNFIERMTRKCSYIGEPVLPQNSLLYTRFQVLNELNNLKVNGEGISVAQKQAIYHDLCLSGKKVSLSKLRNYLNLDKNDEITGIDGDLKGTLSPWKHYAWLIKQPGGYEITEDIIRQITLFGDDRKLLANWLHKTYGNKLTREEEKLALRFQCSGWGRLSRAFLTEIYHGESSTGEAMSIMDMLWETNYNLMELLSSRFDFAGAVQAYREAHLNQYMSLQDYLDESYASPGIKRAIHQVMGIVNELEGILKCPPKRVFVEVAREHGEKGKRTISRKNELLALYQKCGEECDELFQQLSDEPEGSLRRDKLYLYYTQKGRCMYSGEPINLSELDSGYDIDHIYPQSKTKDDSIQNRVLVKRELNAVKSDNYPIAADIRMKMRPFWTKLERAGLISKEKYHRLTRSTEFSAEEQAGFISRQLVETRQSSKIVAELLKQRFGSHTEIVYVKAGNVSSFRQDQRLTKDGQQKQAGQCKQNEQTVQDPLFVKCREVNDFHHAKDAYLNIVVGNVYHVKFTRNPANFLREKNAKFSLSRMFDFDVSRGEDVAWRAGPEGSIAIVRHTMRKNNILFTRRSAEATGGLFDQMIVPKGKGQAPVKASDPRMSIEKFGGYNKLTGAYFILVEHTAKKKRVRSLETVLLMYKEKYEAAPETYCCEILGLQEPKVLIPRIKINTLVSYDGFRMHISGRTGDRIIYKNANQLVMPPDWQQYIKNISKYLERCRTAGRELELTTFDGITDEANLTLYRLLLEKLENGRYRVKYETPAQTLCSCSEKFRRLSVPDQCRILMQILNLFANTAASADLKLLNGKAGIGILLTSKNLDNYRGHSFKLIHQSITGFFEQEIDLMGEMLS

[4] = tested on: T4, OMNI-96 (metagenomic, unknown); conditions: TXTL; PAM NYAAGNNN
T4 sequence: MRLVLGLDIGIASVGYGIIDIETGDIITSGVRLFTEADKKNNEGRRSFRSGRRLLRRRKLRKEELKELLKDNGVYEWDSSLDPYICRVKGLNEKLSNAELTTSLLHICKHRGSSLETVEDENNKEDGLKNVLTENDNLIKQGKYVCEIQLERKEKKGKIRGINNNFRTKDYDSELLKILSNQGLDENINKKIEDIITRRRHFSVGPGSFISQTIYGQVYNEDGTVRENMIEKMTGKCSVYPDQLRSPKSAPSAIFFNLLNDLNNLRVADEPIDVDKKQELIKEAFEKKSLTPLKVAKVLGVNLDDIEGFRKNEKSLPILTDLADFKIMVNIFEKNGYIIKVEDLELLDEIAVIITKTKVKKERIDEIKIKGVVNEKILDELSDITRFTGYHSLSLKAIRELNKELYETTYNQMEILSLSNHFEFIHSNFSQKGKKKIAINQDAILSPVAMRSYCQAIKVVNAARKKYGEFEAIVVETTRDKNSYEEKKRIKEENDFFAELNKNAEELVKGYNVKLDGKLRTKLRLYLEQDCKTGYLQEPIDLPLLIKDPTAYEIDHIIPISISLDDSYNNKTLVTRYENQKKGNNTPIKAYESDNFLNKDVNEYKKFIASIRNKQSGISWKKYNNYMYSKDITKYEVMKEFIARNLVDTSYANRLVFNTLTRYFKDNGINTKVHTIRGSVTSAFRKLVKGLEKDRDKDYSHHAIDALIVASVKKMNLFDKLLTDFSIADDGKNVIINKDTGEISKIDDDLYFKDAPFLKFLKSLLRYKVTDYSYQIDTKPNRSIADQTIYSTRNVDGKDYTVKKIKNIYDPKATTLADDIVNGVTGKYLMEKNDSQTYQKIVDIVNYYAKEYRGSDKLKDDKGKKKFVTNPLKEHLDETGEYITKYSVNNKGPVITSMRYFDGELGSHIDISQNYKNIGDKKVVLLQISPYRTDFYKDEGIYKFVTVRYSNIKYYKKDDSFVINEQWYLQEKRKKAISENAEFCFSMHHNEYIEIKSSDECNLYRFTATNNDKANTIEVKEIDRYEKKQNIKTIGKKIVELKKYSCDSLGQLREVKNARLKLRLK

For “GGAAGAGCAGAGCCUUGGUCUCGUUGUGAAUUGCUUUCGAAAGAAAGCAAUUCACAAUAAGGAUUAUUCCGUUGUGAAAACAUUUAGGACGGGGCAACUCGUCCUUUGUUUUUUU / GGAAGAGCAGAGCCTTGGTCTCNNNNNNNN / NNNNNNNNGAGACCAAGGCTCTGCTCTTCC [T2 sgRNA 9 V1 ; T2 protospacer + 8N PAM library (pbPOS T2)]”, which activity (1-depletion score) [1] is on record?
Its activity (1-depletion score) is 0.93.

With “GGAAGAGCAGAGCCUUGGUCUCGUUGUGAAUUGCUUUCGAAAGAAGCAAUUCACAAUAAGGAUUAUUCCGUUGUGAAAACAUCAGGAGCGGGUUCUACUCGCUCUUUUUU / GGAAGAGCAGAGCCTTGGTCTCNNNNNNNN / NNNNNNNNGAGACCAAGGCTCTGCTCTTCC [T2 sgRNA 10 V1 ; T2 protospacer + 8N PAM library (pbPOS T2)]” as the sequence, how does the activity (1-depletion score) [2] read?
Its activity (1-depletion score) is 0.93.

For “GGAAGAGCAGAGCCUUGGUCUCGUUUGAGAGUCGUGCUGGAAACAACACGACGGGUUCAAAUACGGCUUUGCCAAAACCGCUGGUUUGAUCCAGCUUCACAGUGUGUGAGGGUAAAAAGUCCGCUAUGCGGACUUUUUUU / GGAAGAGCAGAGCCTTGGTCTCNNNNNNNN / NNNNNNNNGAGACCAAGGCTCTGCTCTTCC [T2 sgRNA 15 V1 ; T2 protospacer + 8N PAM library (pbPOS T2)]”, which activity (1-depletion score) [3] is on record?
Its activity (1-depletion score) is 0.95.

For “GGAAGAGCAGAGCCUUGGUCUCGUUUUGCUACCCUAAAUUAGAAAAAUAUUAGGACCUAGCAAAACAAGGCUUUAUGCCGAAAUCGGAGUCGACGGGCUCCUUUUUU / GGAAGAGCAGAGCCTTGGTCTCNNNNNNNN / NNNNNNNNGAGACCAAGGCTCTGCTCTTCC [T2 sgRNA 7 V1 ; T2 protospacer + 8N PAM library (pbPOS T2)]”, which activity (1-depletion score) [4] is on record?
The activity (1-depletion score) was 0.57.
